Assays:
[1] = molecular target: T1, GST (glutathione S-transferase) control protein (UniProt P08515 1-218 = GST); experiment: GST pull-down, negative control: in vitro translated 35S-labelled chemokine or cytokine on GST alone immobilised on glutathione sepharose, SDS-PAGE, fluorography
T1 construct: Negative control in GST pull-down assays; also called GST beads; GST alone

[2] = molecular target: T2, human THAP1 (THanatos-Associated-Protein-1), full length (human, UniProt Q9NVV9 1-213); experiment: yeast two-hybrid
T2 construct: these tags are not written into the chain; also called hTHAP1; THAP1 wild type
T2 sequence: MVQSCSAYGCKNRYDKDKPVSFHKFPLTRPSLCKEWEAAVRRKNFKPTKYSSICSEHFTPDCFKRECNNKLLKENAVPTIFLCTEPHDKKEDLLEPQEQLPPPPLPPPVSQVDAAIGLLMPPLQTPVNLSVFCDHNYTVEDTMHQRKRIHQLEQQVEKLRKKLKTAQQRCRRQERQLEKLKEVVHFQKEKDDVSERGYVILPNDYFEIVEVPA

[3] = molecular target: T3, human chemokine SLC/CCL21, mature form (amino acids 24-134) (human, UniProt O00585 24-134); experiment: yeast two-hybrid
T3 construct: GenBank NP-002980; Used as Gal4 fusion in two-hybrid and as 35S-labelled in vitro translation product in pull-downs; also called SLC/6Ckine; SLC/CCL21 wild type
T3 sequence: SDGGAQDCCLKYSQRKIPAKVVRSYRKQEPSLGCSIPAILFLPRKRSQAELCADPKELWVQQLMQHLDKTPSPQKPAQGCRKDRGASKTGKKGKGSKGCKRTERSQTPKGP

[4] = molecular target: T4, GST-THAP3 181-284 (chemokine-binding domain of THAP3) (human, UniProt Q8WTV1 136-239); experiment: GST pull-down, 35S-labelled in vitro translated molecule
T4 construct: not shown: GST (glutathione S-transferase of pGEX2T) and its linker at the N end
T4 sequence: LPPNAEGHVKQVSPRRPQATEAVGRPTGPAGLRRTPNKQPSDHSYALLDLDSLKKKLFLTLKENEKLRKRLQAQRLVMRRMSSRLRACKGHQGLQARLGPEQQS

[5] = molecular target: T5, GST-THAP1 fusion protein (THAP1 amino acids 1-213) (human, UniProt Q5RCE4 1-213 (Pongo abelii entry)); experiment: GST pull-down: in vitro translated 35S-labelled protein on GST-THAP1 immobilised on glutathione sepharose, SDS-PAGE, fluorography
T5 construct: Expressed in E. coli, immobilized on glutathione sepharose; also called immobilized GST-THAP1; not shown: glutathione S-transferase encoded by vector pGEX-2T (Amersham Pharmacia Biotech)
T5 sequence: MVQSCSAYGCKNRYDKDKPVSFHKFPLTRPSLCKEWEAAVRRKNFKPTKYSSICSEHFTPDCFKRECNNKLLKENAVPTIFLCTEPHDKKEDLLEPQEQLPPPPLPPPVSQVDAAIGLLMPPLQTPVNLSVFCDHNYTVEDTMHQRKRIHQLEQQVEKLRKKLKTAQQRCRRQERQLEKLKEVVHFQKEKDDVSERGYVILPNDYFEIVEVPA
Protocol: To confirm the results obtained in yeast, THAP1 mutants were also tested in in vitro GST pull down assays. Wild type THAP1 expressed as a GST-tagged fusion protein and immobilized on glutathione sepharose (as described in example 16), was incubated with radiolabeled in vitro translated THAP1 mutants. In vitro-translated THAP1 mutants were generated with the TNT-coupled reticulocyte lysate system (Promega, Madison, Wis., USA) using pGADT7-THAP1-C1, -C2, -C3, -N1, -N2 or -N3 vector as template. 25 μl of each ³⁵S-labelled THAP1 mutant was incubated with immobilized GST or GST-THAP1 wild-type protein overnight at 4° C., in the following binding buffer: 10 mM NaPO4 pH 8.0, 140 mM NaCl, 3 mM MgCl2, 1 mM dithiothreitol (DTT), 0.05% NP40, and 0.2 mM phenylmethyl sulphonyl fluoride (PMSF), 1 mM Na Vanadate, 50 mM β Glycerophosphate, 25 μg/ml chimotrypsine, 5 μg/ml aprotinin, 10 μg/ml Leupeptin. Beads were then washed 5 times in 1 ml binding buffer. Bound proteins were eluted with 2× Laemmli SDS-PAGE sample buffer, fractionated by 10% SDS-PAGE and visualized by fluorography using Amplify (Amersham Pharmacia Biotech). As expected, THAP1-C1, -C2, -C3, -and -N3 interacted with GST/THAP1 (FIG. 16B).

[6] = molecular target: T6, chemokine CXCL8 (UniProt P10145 1-99, limits assumed); experiment: GST pull-down: in vitro translated 35S-labelled protein on the GST fusion immobilised on glutathione sepharose, SDS-PAGE, fluorography
T6 construct: 35S-labelled in vitro translation product
T6 sequence (looked up): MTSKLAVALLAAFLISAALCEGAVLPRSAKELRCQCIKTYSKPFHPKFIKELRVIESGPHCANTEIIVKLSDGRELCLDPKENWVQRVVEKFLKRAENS

[7] = molecular target: T2, human THAP1 …; experiment: yeast two-hybrid, chemokine bait and THAP1 prey
[8] = molecular target: T5, GST-THAP1 fusion protein (THAP1 amino …); experiment: GST pull-down: in vitro translated 35S-labelled chemokine or cytokine on the GST fusion immobilised on glutathione sepharose, SDS-PAGE, fluorography
[9] = molecular target: T2, human THAP1 …; experiment: yeast two-hybrid, THAP1 bait

T1 sequence (P08515 whole entry): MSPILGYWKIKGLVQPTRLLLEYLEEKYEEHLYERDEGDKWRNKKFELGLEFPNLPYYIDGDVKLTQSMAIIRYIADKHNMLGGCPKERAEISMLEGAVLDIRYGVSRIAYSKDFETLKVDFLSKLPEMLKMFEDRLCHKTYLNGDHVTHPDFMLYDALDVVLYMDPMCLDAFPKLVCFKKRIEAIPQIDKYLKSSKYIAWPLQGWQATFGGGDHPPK

B1: human chemokine MIG/CXCL9, mature form (amino acids 23-125) (ligand)
chain: TPVVRKGRCSCISTNQGTIHLQSLKDLKQFAPSPSCEKIEIIATLKNGVQTCLNPDSADVKELIKKWEKQVSQKKKQKNGKKHQKKKVLKVRKSQRSRQKKTT
notes: Residues are printed against GenBank NM-002416; Gal4 fusion or in vitro translation product
Does B1 bind [1]?
Result: no binding

B2: THAP1-N3 deletion mutant (amino acids 1-192) (other)
chain: MVQSCSAYGCKNRYDKDKPVSFHKFPLTRPSLCKEWEAAVRRKNFKPTKYSSICSEHFTPDCFKRECNNKLLKENAVPTIFLCTEPHDKKEDLLEPQEQLPPPPLPPPVSQVDAAIGLLMPPLQTPVNLSVFCDHNYTVEDTMHQRKRIHQLEQQVEKLRKKLKTAQQRCRRQERQLEKLKEVVHFQKEKDD
notes: Gal4 fusion, in vitro translation product or GFP fusion according to assay
Does B2 bind [2]?
Result: binds

B3: THAP1-N1 deletion mutant (amino acids 1-90) (other)
chain: MVQSCSAYGCKNRYDKDKPVSFHKFPLTRPSLCKEWEAAVRRKNFKPTKYSSICSEHFTPDCFKRECNNKLLKENAVPTIFLCTEPHDKK
notes: Gal4 fusion, in vitro translation product or GFP fusion according to assay; also called zinc finger domain of THAP1
Does B3 bind [2]?
Result: no binding

Does B3 bind [3]?
Result: no binding

Does B3 bind [4]?
Result: no binding

Does B3 bind [5]?
Result: no binding

B4: GST-THAP2 133-228 (chemokine-binding domain of THAP2) (other)
chain: EAKKRIIKLEKEIASLRRKMKTCLQKERRATRRWIKATCLVKNLEANSVLPKGTSEHMLPTALSSLPLEDFKILEQDQQDKTLLSLNLKQTKSTFI
notes: Immobilized on glutathione sepharose; not shown: glutathione S-transferase encoded by vector pGEX2T (Amersham Biosciences)
Does B4 bind [6]?
Result: no binding

B5: THAP1-C3 deletion mutant (amino acids 143-213) (other)
chain: MHQRKRIHQLEQQVEKLRKKLKTAQQRCRRQERQLEKLKEVVHFQKEKDDVSERGYVILPNDYFEIVEVPA
notes: as for B2
Does B5 bind [2]?
Result: binds

Does B5 bind [3]?
Result: binds

B6: human chemokine ELC/CCL19, mature form (amino acids 22-98) (ligand)
chain: GTNDAEDCCLSVTQKPIPGYIVRNFHYLLIKDGCRVPAVVFTTLRGRQLCAPPDQPWVERIIQRLQRTSAKMKRRSS
notes: Residues are printed against GenBank NM-006274; Gal4-BD fusion or in vitro translation product
Does B6 bind [7]?
Result: binds

Does B6 bind [1]?
Result: no binding

B7: human cytokine interferon gamma (amino acids 21-166) (ligand)
chain: CYCQDPYVKEAENLKKYFNAGHSDVADNGTLFLGILKNWKEESDRKIMQSQIVSFYFKLFKNFKDDQSIQKSVETIKEDMNVKFFNSNKKKRDDFEKLTNYSVTDLNVQRKAIHELIQVMAELSPAAKTGKRKRSQMLFQGRRASQ
notes: Residues are given against GenBank NM-000619; Negative control; also called IFNγ; IFN
Does B7 bind [2]?
Result: no binding

Does B7 bind [4]?
Result: no binding

Does B7 bind [8]?
Result: no binding

Does B7 bind [1]?
Result: no binding

B8: THAP1-C1 deletion mutant (amino acids 90-213) (other)
chain: KEDLLEPQEQLPPPPLPPPVSQVDAAIGLLMPPLQTPVNLSVFCDHNYTVEDTMHQRKRIHQLEQQVEKLRKKLKTAQQRCRRQERQLEKLKEVVHFQKEKDDVSERGYVILPNDYFEIVEVPA
notes: Gal4 fusion, in vitro translation product or GFP fusion according to assay; also called THAP1-CL; THAP1ΔTHAP
Does B8 bind [2]?
Result: binds

B9: THAP1-C2 deletion mutant (amino acids 120-213) (other)
chain: MPPLQTPVNLSVFCDHNYTVEDTMHQRKRIHQLEQQVEKLRKKLKTAQQRCRRQERQLEKLKEVVHFQKEKDDVSERGYVILPNDYFEIVEVPA
notes: as for B2
Does B9 bind [2]?
Result: binds

Does B9 bind [3]?
Result: binds

B10: THAP1ΔQRCRR mutant (deletion of residues 168-172) (other)
chain: MVQSCSAYGCKNRYDKDKPVSFHKFPLTRPSLCKEWEAAVRRKNFKPTKYSSICSEHFTPDCFKRECNNKLLKENAVPTIFLCTEPHDKKEDLLEPQEQLPPPPLPPPVSQVDAAIGLLMPPLQTPVNLSVFCDHNYTVEDTMHQRKRIHQLEQQVEKLRKKLKTAQQERQLEKLKEVVHFQKEKDDVSERGYVILPNDYFEIVEVPA
Does B10 bind [9]?
Result: no binding

Source: patent US20060270596A1 (CENTRE NATIONAL DE LA RECHERCHE SCIENTIFIQUE CNRS, published 2006)
